The values below come from patent publication US20150196637A1.

Where two headings read alike, the source gives them in different places.

Experiment [1] addresses IgG1 heavy chain with CH3 construct 2 (K392D, K409D) and common light chain (human) [IgG part: P01857].
For experiment [2] the target is unchanged. Kind of experiment: native MS, transfection #11 of Table 24; fibrinogen VH on construct 1 with fibrinogen VH on construct 2.
In experiment [3] the target is IgG1 heavy chain with CH3 construct 67 (K360D) and common light chain (human) [IgG part: P01857].
The target in experiment [4] is IgG1 heavy chain with CH3 construct 8 (Q347K) and common light chain (human) [IgG part: P01857].
Experiment [5] deals with IgG1 heavy chain with CH3 construct 61 (L351K) and common light chain (human) [IgG part: P01857].
In experiment [6] the target is IgG1 heavy chain with CH3 construct 64 (T366D) and common light chain (human) [IgG part: P01857].

For “IgG1 heavy chain with CH3 construct 1 (E356K, D399K) and common light chain (from UniProt P01857-1)”, the % of the mixture (peak height) was 67% in experiment [1] and 61% in experiment [2].
Substance “IgG1 heavy chain with CH3 construct 8 (Q347K) and common light chain (from UniProt P01857-1)” displayed an AC found (%) in experiment [3] of 41%. The AA found (%) in experiment [4] worked out at 34%.
Regarding “IgG1 heavy chain with CH3 construct 61 (L351K) and common light chain (from UniProt P01857-1)”, in experiment [5], the AA found (%) stood at 30%. This substance gave an AC found (%) in experiment [6] of 52%.
